Test results published in patent US20240317858A1 (Adimab, published 2024).

What was measured:
[1] = biological target: T1, Human CD3εδ Fc heterodimer (Hu CD3ε Fc + CD3δ Fc-HIS) (human, UniProt P07766 22-126; P04234 22-100); assay: BLI (Octet), Fab monovalent, pH 6.0
T1 construct: range 22-126;range 22-100; Made in HEK 293 cells with a heterologous signal peptide; also called Hu CD3εδ-Fc; CD3εδ Fc-HIS heterodimer; not shown: Fc; Fc followed by HIS tag
Experimental: (§1) ForteBio KD measurements (Biolayer interferometry; BLI). ForteBio affinity measurements were performed generally as previously described (Estep, P., et al., High throughput solution-based measurement of antibody-antigen affinity and epitope binning. MAbs, 2013. 5(2): p. 270-8.). Briefly, ForteBio affinity measurements were performed by loading IgGs or CD3εδ Fe-HIS heterodimer onto AHC sensors. Sensors were equilibrated off-line in assay buffer for 30 min and then monitored on-line for 60 seconds for baseline establishment. Sensors with loaded IgGs were exposed to 100 nM antigen (e.g., CD3) for 3 min, afterwards they were transferred to assay buffer for 10 min for off-rate measurement. Sensors loaded with CD3εδ Fe-HIS heterodimer were exposed to 100 nM anti-CD3 Fab for 3 min, afterwards they were transferred to assay buffer for 3 min or 10 min for off-rate measurement. Kinetics were analyzed using the 1:1 binding model. For measuring binding at different pHs, measurements were performed at pre-determined pHs (e.g., pH 7.4 and pH 6.0).
(§2) Anti-CD3 antibodies A001-A005, V002, V004, V007, V009, V010, V013, and V014-V019 were produced as IgG1s in CHO cells, and Fab fragments were generated from IgG1 antibodies by papain digestion and purification as described in Example 2. Human, cynomolgus, rhesus, and mouse CD3εδ Fc heterodimers were produced, and monovalent binding affinity and avidity at pH 7.4 and pH 6.0 were measured using the Octet® HTX instrument (ForteBio) as described in Example 2.

[2] = biological target: T2, Cynomolgus CD3εδ Fc heterodimer (Cy CD3ε Fc + CD3δ Fc-HIS) (cynomolgus, UniProt Q95LI5 22-117; Q95LI8 22-100); assay: BLI (Octet), Fab monovalent, pH 6.0
T2 construct: range 22-117;range 22-100; Made in HEK 293 cells with a heterologous signal peptide; also called Cy CD3εδ-Fc; cyno CD3εδ Fc; not shown: Fc; Fc followed by HIS tag
Experimental: as §1, §2

[3] = biological target: T1, Human CD3εδ Fc heterodimer (Hu CD3ε Fc …); assay: BLI (Octet), Fab monovalent, pH 7.4
Experimental: as §1, §2

[4] = biological target: T2, Cynomolgus CD3εδ Fc heterodimer (Cy …); assay: BLI (Octet), Fab monovalent, pH 7.4
Experimental: as §1, §2

[5] = biological target: T3, Rhesus CD3εδ Fc heterodimer (rhesus); assay: BLI (Octet), Fab monovalent, pH 7.4
T3 construct: extracellular domain; also called Rh CD3εδ-Fc
Experimental: as §1, §2

[6] = biological target: T1, Human CD3εδ Fc heterodimer (Hu CD3ε Fc …); assay: SPR (Biacore), Fab over immobilized CD3εδ Fc, pH 6.0
Experimental: (§3) Anti-CD3 antibodies A001-A005, V002, V004, V007, V009, V010, V013, and V014-V019 were produced in CHO cells, and Fab fragments were generated from IgG1 antibodies by papain digestion and purification as described in Example 2. Monovalent binding affinity at pH 7.4 and pH 6.0 was measured via surface plasmon resonance (SPR). Briefly, human or cynomolgus CD3εδ Fe heterodimer produced as described in Example 2 was immobilized to a CM5 sensor chip in a Biacore® X100 (Cytiva, previously GE Healthcare Life Sciences) to a response level of ˜500 RUs. Fabs were then injected at 3-fold increasing concentrations, ranging from 0.74-180 nM. The sensor chip was doubly regenerated between cycles using 0.35 M EDTA and 0.1 M NaOH. The resulting data were double reference subtracted and fit to a 1:1 binding model using Biacore® Evaluation Software.

[7] = biological target: T2, Cynomolgus CD3εδ Fc heterodimer (Cy …); assay: as above
Experimental: as §3

[8] = biological target: T4, Cynomolgus CD3 on HSC-F cells (cynomolgus, UniProt Q95LI5 22-198); assay: flow cytometry, 100 nM IgG1, pH 7.4
T4 construct: whole, on cells; Target is the endogenous CD3 complex on cells; also called Cyno CD3 HSC-F cells; Cyno CD3+ HSC-F cells
Experimental: (§4) Cell binding assays. CD3+ human Jurkat cells (ATCC) and CHO-S cells (Invitrogen/ThermoFisher) were thawed and washed with cold PBSF buffer, pH 7.4 (PBS+0.1% BSA, pH 7.4). About 200,000 cells were aliquoted per well of a 96-well plate (FACS Assay Plate VWR BD 353263) and pelleted by centrifugation (5 minutes at 500×g). The cells were washed with either PBSF pH 7.4 or PBSF pH 6.0 (PBS+0.1% BSA, pH 6.0), and then resuspended in 100 μl in either PBSF pH 7.4 or PBSF pH 6.0 with IgG1 antibody (100 nM) produced in yeast as described above or in CHO cells. The mixture (cells+antibody) was incubated for 20 minutes on ice, then washed twice with either PBSF pH 7.4 or PBSF pH 6.0. Cells were resuspended in 50 μl of propidium iodide (Roche; 1:500 dilution) and anti-human IgG-RPE (Southern Biotech; 1:100 dilution) prepared in either PBSF pH 7.4 or PBSF pH 6.0, then incubated for 20 minutes on ice in the dark before cells were washed twice with either PBSF pH 7.4 or PBSF pH 6.0. Binding was analyzed on FACS Canto II.
(§5) Anti-CD3 antibodies A001-A005, V002, V004, V007, V009, V010, V013, and V014-V019 were produced as IgG1s in CHO cells, and binding to human CD3+ Jurkat cells and cynomolgus CD3+ HSC-F cells at pH 7.4 was analyzed by flow cytometry as described in Example 2. NCB (Normalized Cell Binding) values were calculated based on control and sample MFI values as NCB={(Sample MFI)−(Secondary only MFI)}/(Secondary only MFI).

[9] = biological target: T5, Human CD3 on CD3+ Jurkat cells (human, UniProt P07766 23-207); assay: flow cytometry, 100 nM IgG1, pH 7.4
T5 construct: whole, on cells; Target is the endogenous CD3 complex on cells; also called Human CD3+ Jurkat cells
Experimental: as §4, §5

T4 sequence (Q95LI5 22-198): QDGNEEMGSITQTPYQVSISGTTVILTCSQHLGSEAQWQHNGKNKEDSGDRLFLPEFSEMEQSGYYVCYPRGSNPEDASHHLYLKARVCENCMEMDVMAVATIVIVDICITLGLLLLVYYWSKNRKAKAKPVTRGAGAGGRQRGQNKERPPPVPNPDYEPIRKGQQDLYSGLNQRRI
T5 sequence (P07766 23-207): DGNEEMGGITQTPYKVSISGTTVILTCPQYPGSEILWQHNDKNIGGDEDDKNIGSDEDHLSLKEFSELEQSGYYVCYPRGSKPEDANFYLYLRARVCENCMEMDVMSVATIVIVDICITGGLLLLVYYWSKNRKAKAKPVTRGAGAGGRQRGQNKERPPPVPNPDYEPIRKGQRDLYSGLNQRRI
T2 sequence (Q95LI5 22-117, stated change not applied, form in doubt, chain 1 of 2): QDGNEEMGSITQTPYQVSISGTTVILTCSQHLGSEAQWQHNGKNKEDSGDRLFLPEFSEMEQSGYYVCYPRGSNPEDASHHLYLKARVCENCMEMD
T2 sequence (Q95LI8 22-100, stated change not applied, form in doubt, chain 2 of 2): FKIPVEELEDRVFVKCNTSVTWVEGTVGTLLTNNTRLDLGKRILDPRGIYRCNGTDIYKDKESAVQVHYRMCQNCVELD
T1 sequence (P07766 22-126, stated change not applied, form in doubt, chain 1 of 2): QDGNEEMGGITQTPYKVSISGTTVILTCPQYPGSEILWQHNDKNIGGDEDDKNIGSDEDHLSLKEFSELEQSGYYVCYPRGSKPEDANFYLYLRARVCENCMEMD
T1 sequence (P04234 22-100, stated change not applied, form in doubt, chain 2 of 2): as the sequence (Q95LI8 22-100, stated change not applied, form in doubt, chain 2 of 2) above, with V5I, K15N, V20I, T32S, N33D, N34I, A64T, N74S counted along it

Binder	NCB (Normalized Cell Binding) [8]	NCB (Normalized Cell Binding) [9]	also measured
Antibody No. V019 (ADI-76362) Fab (Fab, V domains shown, Fab by papain digestion of the IgG1) VH: QVQLVQSGAEVKKPGASVKVSCKASGFNIKDYYMHWVRQAPGQRLEWMGWIDLEEGDTIYDAKFQGRVTITRDTSASTAYMELSSLRSEDTAVYYCARDAYGRYFYDVWGQGTLVTVSS VL: DIVMTQSPDSLAVSLGERATINCKSSQSLLNARTGKNYLAWYQQKPGQPPKLLIYWASTRESGVPDRFSGSGSGTDFTLTISSLQAEDVAVYYCKQSYSLRTFGGGTKVEIK	–	–	Kd [1]: 36 nM; Kd [2]: 21 nM; Kd [3]: 64 nM; Kd [4]: 34 nM; Kd [5]: 79 nM; Kd [6]: 33 nM; Kd [7]: 29 nM
Antibody No. V016 (ADI-76359) IgG1 (antibody, V domains shown, IgG1, CHO-produced) VH: QVQLVQSGAEVKKPGASVKVSCKASGFDIKDYYMHWVRQAPGQRLEWMGWIDLENANTIYDAKFQGRVTITRDTSASTAYMELSSLRSEDTAVYYCGRDAYGRYFYDVWGQGTLVTVSS VL: DIVMTQSPDSLAVSLGERATINCKSSQSLLNARTGKNYLAWYQQKPGQPPKLLIYWASTRESGVPDRFSGSGSGTDFTLTISSLQAEDVAVYYCKQSYSLRTFGGGTKVEIK	374	314	–
Antibody No. A004 (ADI-26920) IgG1 (antibody, V domains shown, IgG1, CHO-produced) VH: QVQLVQSGAEVKKPGASVKVSCKASGFNIKDYYMHWVRQAPGQRLEWMGWIDLENANTIYDAKFQGRVTITRDTSASTAYMELSSLRSEDTAVYYCGRDAYGRYFYDVWGQGTLVTVSS VL: DIVMTQSPDSLAVSLGERATINCKSSQSLLNARTGKNYLAWYQQKPGQPPKLLIYWASTRESGVPDRFSGSGSGTDFTLTISSLQAEDVAVYYCKQSYSLRTFGGGTKVEIK	348	240	–
Antibody No. V014 (ADI-76357) IgG1 (antibody, V domains shown, IgG1, CHO-produced) VH: QVQLVQSGAEVKKPGASVKVSCKASGFDIKDYYMHWVRQAPGQRLEWMGWIDLENANTIYDAKFQGRVTITRDTSASTAYMELSSLRSEDTAVYYCARDQYGRYFYDVWGQGTLVTVSS VL: DIVMTQSPDSLAVSLGERATINCKSSQSLLNARTGKNYLAWYQQKPGQPPKLLIYWASTRESGVPDRFSGSGSGTDFTLTISSLQAEDVAVYYCKQSYSRRTFGGGTKVEIK	377	349	–
Antibody No. A005 (ADI-26921) IgG1 (antibody, V domains shown, IgG1, CHO-produced) VH: QVQLVQSGAEVKKPGASVKVSCKASGFNIKDYYMHWVRQAPGQRLEWMGWIDLEEGNTIYDAKFQGRVTITRDTSASTAYMELSSLRSEDTAVYYCARDAYGRYFYDVWGQGTLVTVSS VL: DIVMTQSPDSLAVSLGERATINCKSSQSLLNARTGKNYLAWYQQKPGQPPKLLIYWASTRESGVPDRFSGSGSGTDFTLTISSLQAEDVAVYYCKQSYSLRTFGGGTKVEIK	364	206	–
Antibody No. A003 (ADI-26913) IgG1 (antibody, V domains shown, IgG1, CHO-produced) VH: QVQLVQSGAEVKKPGASVKVSCKASGFNIKDYYMHWVRQAPGQRLEWMGWIDLENANTIYDAKFQGRVTITRDTSASTAYMELSSLRSEDTAVYYCARDQYGRYFYDVWGQGTLVTVSS VL: DIVMTQSPDSLAVSLGERATINCKSSQSLLNARTGKNYLAWYQQKPGQPPKLLIYWASTRESGVPDRFSGSGSGTDFTLTISSLQAEDVAVYYCKQSYSRRTFGGGTKVEIK	367	209	–
Antibody No. V015 (ADI-76358) IgG1 (antibody, V domains shown, IgG1, CHO-produced) VH: QVQLVQSGAEVKKPGASVKVSCKASGFNIKDYYMHWVRQAPGQRLEWMGWIDLENADTIYDAKFQGRVTITRDTSASTAYMELSSLRSEDTAVYYCARDQYGRYFYDVWGQGTLVTVSS VL: DIVMTQSPDSLAVSLGERATINCKSSQSLLNARTGKNYLAWYQQKPGQPPKLLIYWASTRESGVPDRFSGSGSGTDFTLTISSLQAEDVAVYYCKQSYSRRTFGGGTKVEIK	369	334	–

More lines, main results first:

NCB (Normalized Cell Binding) [8]	NCB (Normalized Cell Binding) [9]	Binder	also measured
373	328	Antibody No. V019 (ADI-76362) IgG1 (antibody, V domains shown, IgG1, CHO-produced) VH: QVQLVQSGAEVKKPGASVKVSCKASGFNIKDYYMHWVRQAPGQRLEWMGWIDLEEGDTIYDAKFQGRVTITRDTSASTAYMELSSLRSEDTAVYYCARDAYGRYFYDVWGQGTLVTVSS VL: DIVMTQSPDSLAVSLGERATINCKSSQSLLNARTGKNYLAWYQQKPGQPPKLLIYWASTRESGVPDRFSGSGSGTDFTLTISSLQAEDVAVYYCKQSYSLRTFGGGTKVEIK	–
378	223	Antibody No. V018 (ADI-76361) IgG1 (antibody, V domains shown, IgG1, CHO-produced) VH: QVQLVQSGAEVKKPGASVKVSCKASGFDIKDYYMHWVRQAPGQRLEWMGWIDLEEGNTIYDAKFQGRVTITRDTSASTAYMELSSLRSEDTAVYYCARDAYGRYFYDVWGQGTLVTVSS VL: DIVMTQSPDSLAVSLGERATINCKSSQSLLNARTGKNYLAWYQQKPGQPPKLLIYWASTRESGVPDRFSGSGSGTDFTLTISSLQAEDVAVYYCKQSYSLRTFGGGTKVEIK	–
376	325	Antibody No. V017 (ADI-76360) IgG1 (antibody, V domains shown, IgG1, CHO-produced) VH: QVQLVQSGAEVKKPGASVKVSCKASGFNIKDYYMHWVRQAPGQRLEWMGWIDLENADTIYDAKFQGRVTITRDTSASTAYMELSSLRSEDTAVYYCGRDAYGRYFYDVWGQGTLVTVSS VL: DIVMTQSPDSLAVSLGERATINCKSSQSLLNARTGKNYLAWYQQKPGQPPKLLIYWASTRESGVPDRFSGSGSGTDFTLTISSLQAEDVAVYYCKQSYSLRTFGGGTKVEIK	–
